Assay results reported in US20220340685A1 (Novartis, published 2022).
Where “and” joins values, the source holds several entries; their conditions need not be identical. Equal entries are not always repeated.

Key:
[1] = biological target: T1, mouse ENTPD2 on cells (mouse, UniProt O55026 1-495); assay: cell-based or functional assay
T1 sequence: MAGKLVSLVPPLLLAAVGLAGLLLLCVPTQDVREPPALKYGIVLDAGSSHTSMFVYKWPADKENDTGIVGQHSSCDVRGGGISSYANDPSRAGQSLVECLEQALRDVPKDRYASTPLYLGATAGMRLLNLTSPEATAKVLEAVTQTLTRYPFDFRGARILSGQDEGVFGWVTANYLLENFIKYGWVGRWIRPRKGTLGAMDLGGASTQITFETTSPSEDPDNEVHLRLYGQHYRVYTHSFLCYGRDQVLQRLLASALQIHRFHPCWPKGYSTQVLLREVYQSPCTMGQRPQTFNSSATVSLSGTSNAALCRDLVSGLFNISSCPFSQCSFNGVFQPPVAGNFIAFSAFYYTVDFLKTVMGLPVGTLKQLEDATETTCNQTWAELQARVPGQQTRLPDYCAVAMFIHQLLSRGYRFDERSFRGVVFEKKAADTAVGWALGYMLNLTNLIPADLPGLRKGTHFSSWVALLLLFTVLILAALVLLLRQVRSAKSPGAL

[2] = biological target: T2, recombinant human ENTPD2 (residues 29-462, Y350A mutant) used in crystallographic studies (human, UniProt Q9Y5L3 29-462, N-linked glycosylation observed at Asn129, Asn294, Asn378 and Asn443); assay: X-ray co-crystal structure
T2 construct: also called human ENTPD2 Y350A; hENTPD2 Y350A
T2 sequence: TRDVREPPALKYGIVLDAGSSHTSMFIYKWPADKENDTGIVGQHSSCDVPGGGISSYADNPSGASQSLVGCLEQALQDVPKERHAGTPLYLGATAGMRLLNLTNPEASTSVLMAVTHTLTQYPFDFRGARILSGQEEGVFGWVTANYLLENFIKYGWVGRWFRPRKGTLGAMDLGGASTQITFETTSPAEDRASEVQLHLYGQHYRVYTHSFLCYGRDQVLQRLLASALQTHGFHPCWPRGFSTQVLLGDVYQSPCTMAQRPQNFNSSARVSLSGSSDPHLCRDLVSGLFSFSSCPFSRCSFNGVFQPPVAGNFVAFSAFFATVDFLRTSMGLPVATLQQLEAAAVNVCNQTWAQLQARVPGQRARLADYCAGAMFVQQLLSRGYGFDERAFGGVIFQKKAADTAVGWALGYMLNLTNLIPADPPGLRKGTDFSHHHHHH

[3] = biological target: human FcγRIIIa, V158 (high affinity variant) (human, UniProt P08637 17-254); assay: cell-based or functional assay
Chain of human FcγRIIIa, V158 (high affinity variant) (P08637 other isoform, or with tags, fused parts or gaps mutant limits assumed): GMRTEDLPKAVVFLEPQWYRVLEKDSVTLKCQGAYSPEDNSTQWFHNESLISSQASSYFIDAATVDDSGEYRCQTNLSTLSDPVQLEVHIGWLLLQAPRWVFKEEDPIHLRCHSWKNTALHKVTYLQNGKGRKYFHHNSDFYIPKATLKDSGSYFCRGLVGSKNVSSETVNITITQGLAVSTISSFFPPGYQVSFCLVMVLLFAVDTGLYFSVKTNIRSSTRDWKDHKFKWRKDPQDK

| Binder | ENTPD2 Functional Assay IC50 (mouse ENTPD2 NIH/3T3 cell-based assay) [1] [nM] | binding result [2] | further results |
| --- | --- | --- | --- |
| anti-mouse ENTPD2 mAb13 (antibody, mouse IgG2a, kappa, V domains shown) VH: QVQLVQSGAELKQPGQSVKISCKASGYTFTHYGMNWVKQAPGQGLKWMGWINTDTGNPTYADDFKGRFVFSLDTSVSTAYLQISNLKNEDTATYYCVRYGTLYSGYGFFFDSWGQGTLVTVSS VL: DIMMTQSPSSLSVSAGEKATITCKSSQSLFNSNTNKNYLNWYLQKPGQSPKLLFYYASTRHTGVPDRFIGSGSGTDFTLTITSVQDEDLADYYCQQWYSYPWTFGPGTKLEIKR | 2.8 |  |  |
| anti-mouse ENTPD2 mAb14 (antibody, mouse IgG2a, kappa, V domains shown) VH: QVQLVQSGAELKQPGQSVKISCKASGYTFWHYGMNWVKQAPGQGLKWMGWINTDTGNPTYADDFKGRFVFSLDTSVSTAYLQISNLKNEDTATYYCVRYGTLYSGYGFFFDSWGQGTLVTVSS VL: DIMMTQSPSSLSVSAGEKATITCKSSQSLFNSNTNKNYLNWYLQKPGQSPKLLFYYASTRHTGVPDRFIGSGSGTDFTLTITSVQDEDLADYYCQQWYSYPWTFGPGTKLEIKR | 4.6 |  |  |
| anti-mouse ENTPD2 mAb15 (antibody, mouse IgG2a, kappa, V domains shown) VH: QVQLVQSGAELKQPGQSVKISCKASGYTFHHYGMNWVKQAPGQGLKWMGWINTDTGNPTYADDFKGRFVFSLDTSVSTAYLQISNLKNEDTATYYCVRYGTLYSGYGFFFDSWGQGTLVTVSS VL: DIMMTQSPSSLSVSAGEKATITCKSSQSLFNSNTNKNYLNWYLQKPGQSPKLLFYYASTRHTGVPDRFIGSGSGTDFTLTITSVQDEDLADYYCQQWYSYPWTFGPGTKLEIKR | 5.9 |  |  |
| anti-human ENTPD2 FAb23 (Fab, V domains shown, residue 1 of the light chain observed and modeled as pyroglutamate in the crystal structure, Fab with human CH1 and human kappa constant regions; variable regions of mAb17; also called anti-hENTPD2 FAb23; anti-human ENTPD2 MAB17 Fab) VH: EVQLQQFGAELVKPGASVKISCKASGYTFTDYNMDWVKQSHGKSLEWIGDINPKYDISTYNQQFKGKATLTVDKSSSTAYMELRSLTSEDTAVYYCARRGFFLYYGINYYYFDVWGAGTTVTVSS VL: QIVLTQSPAIMSASLGEEITLTCSASSSVSYIHWYQQKSGTSPTLLIYSTSNLASGVPSRFSGSGSGTFYSLTISSVEAEDAADYYCHQWSSYPWTFGGGTKLEIKR |  | binds |  |
| anti-human ENTPD2 FAb22 (Fab, V domains shown, Fab with human CH1 and human kappa constant regions; CDRs of mAb16; also called anti-hENTPD2 FAb22) VH: EVKLEQSGPGLVKPSQSLSLTCSVTGYSITSGYYWNWIRQFPGNKLEWMSYISYDGDNNYNPSLKNRISITRDTSKNQFFLKLSSVTTEDTATYYCAGGYYRYGLSYYYVMDYWGQGTSVTVSA VL: DIKMTQSPASLAVSLGQRATISCKASQSVDYDGNSYMNWYQQKPGQPPKLLIYAASNLESGIPARFSGSGSGTDFTLNIHPVEEEDAATYYCQQSNEDPPTFGGGTKLELKR |  | binds |  |
| anti-human ENTPD2 mAb1 (antibody, human IgG1, kappa) heavy: not shown light: DIQLTQSPSSLSASVGDRVTITCSASSSVSYIHWFQQKPGKAPKLLIYSTSNLASGVPSRFSGSGSGTFFTLTISSLQPEDFATYFCHQWSSYPWTFGQGTKVEIKRTVAAPSVFIFPPSDEQLKSGTASVVCLLNNFYPREAKVQWKVDNALQSGNSQESVTEQDSKDSTYSLSSTLTLSKADYEKHKVYACEVTHQGLSSPVTKSFNRGEC |  |  | FcγRIIIa signaling, Jurkat NFAT-luciferase reporter cells with RKO target cells, EC50 [3]: 17.3 nM and 2.55 µg/mL |
